Data published in the supplement of paper PMC9170038.

Test system: K4 kissing-loop RNA reporter
Test: apparent KD of K4 kissing-loop reporter; higher = weaker reporter binding
Details: Eterna round: R107; input ligand: FMN 200 uM
Method: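 RNA-MaP round R107: designed RNA switches with theophylline, tryptophan, arginine or FMN aptamers are transcribed on-chip within common flanks. They are titrated with a labelled K4 kissing-loop RNA reporter in RNA-MaP buffer (100 mM Tris pH 7.5, 80 mM KCl, 4 mM MgCl2), without ligand or with the indicated ligand. Median apparent KD per design.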
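Also: bound reporter read as fluorescence of individual clusters on recovered sequencing chips by microscopy, with normalized cluster intensities fitted with a binding model.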

Sequence	apparent KD of K4 kissing-loop reporter [nM]
UUAGUCUAGAGAAGGAGCGAGUGAUGUUCGCAUGCUAUGAUGAAUUCAUCAUAGUUUAAUCCUCAGGUAGGUCGCUCUAGACAUU [AK7 Exc Arginine B]	427
CGGAUGUAGUGAUGUUAUAUUAGAUGUAGACGAGGACCGGUACGGCCGCCACUCGUGAUGGCUGCUAGCGCGUUGCGAGGUUUGC [ExTryptoA.Co]	408
UUUUGGUUCUGAGGAUAUUCGAAGAAAUAUAGUGAUGUUAUAUAAGGAGGAGGAUGUAGGGAGGAAGGAGAAGGCAGAAGAGGAG [ExFMNB.J]	1040
CGAUCUGAUAGCAGUGAUGUUGCUACAGAUACCAGUCCAGAUCGAGACCCUUGGCAGCUGACCCGGCAUGUGCUAUGGUAGAUCG [Theo A Ex t1]	156
AAAUAGGUGUGCGAUACCAGCCGGAGUGAUGUUCCGUGUUGUACUGGCUGCACCUACGCCGGCCCUUGGCAGCGUGCUCCAUUUA [Enonin]	177
AAAGCAUUGAGAAGGAGCGUGACGUGGAGUGAUGUUCCAUUGUAGUAAUAAUUACUACUAUCACAGGUAGGUCGCUCAUUGCUAA [JR_Nu_SSArginiB_Sub024]	183
GGAUAGGACAGAGGAUAUCUCUGAGGCAAGAAAACUUGUCUCUAAAGAGAUGACUCAGUGAUGUUGAGAGAAGGCUGUCCUAUCG [FmnBX 9 - #SwitchBubble #StaticStem]	211
AAACCAAUCAGAGGAUAUUCUUUAUUCGACAUAACCUUCUAUAAGGUGCAGUGAUGUUGCAAUAUAGGAGAAGGCUGAUUGACAA [Exclusion FMN B Gf 13]	232
UGAUAGGACAGAAGGAGCGGAGGUCGUCAAAGACGACCAAUACGUUAAAUAGGAGUGAUGUUCCAGGUAGGUCGCUGUCCUAUCU [ArgBX 30 #SwitchBubble #StaticStem]	123
GUCCCAGUGAUGUUGGUAGGCGGGCGGGAUACCAGCGGAGACUCACGCCCUUGGCAGCCCACAUAUCCCGCGUAGGGAUUAGCCC [Same State - Theophylline A (Freestyle 23)]	285
AGUGCACUGUCAGGAUAUGUACAGUGAUGUUGUGUAUGUCAGCAAGUCAAAGACUUGCUCUUCUGUGCAGAAGGGACUGUGUACA [Omei KL FMN B Exc A v5]	755
GAUAUAGUGAUGUUAUAUACUGAUAGACAACGAGGACCGGUACGGCCGCCACUCGAGAGGGUGAAAAUAAUGAUAAAAUAAUAAU [ExyTryA#1]	343
UGUACCGAGUUAGGAUAUGUCGUCGAAAGACGAAAUGGAGUGAUGUUCCUUAAACUGCGAAAGCAGACAGAAGGGAUUUGGUACU [FmnBS 29 U11+U77]	331
AAUGUGCAGGGAAGGAGCGUAGUCCAGUGCUGUUGGAGUUAGAUACCAGUGAUGUUGGUUAUACAGGUAGGUCGCCCUAAAGCGC [whbob_Ex_Arginine_B_2th161]	139
UCUGUACCGGGAAGGAGCGUGAAUGAGAAUGGAUAUAGUGAUGUUAUGUAUACGAACGAAUCGCAGGUAGGUCGCCCGGAUCCCU [SSArgB.aA]	674
AUUCACCUGUCGGCCGCCACUGCGUUAGCAGUAUCGGGCAGAAACUUCGCAGUGAUGUUGCGACUCAGGACCGGGACGUUGAGGA [theeternabot_exclusion_KL_Trp_B_29]	445
AGGGAUGUUAAAGGAUAUAGAAAGUGAUGUUAGAAAGUGAGUGAUGUUGAUGUAAGUGAUGUUAUGUUAGAAGGUUAACAAAACG [ab]	229
CCGAGCUACAGCGAUACCAGUGUGGAGUGAUGUUCCCUGGUCCGGGCUGUUGUUCCCUUGCGCCCUUGGCAGCGCAGAAGCAGCU [Exclusion Theophylline B GF 14]	303
CCUAUCUCAUACGAUACCAGUGAAUAACCAGUGAUGUUGGAAUAACCAAGGAAUAUUUUACACCCUUGGCAGCGUAUGGGAUAGG [Ex Theophylline B K4 25]	274
AUUAAUUUCAGAGGAUAUCGUUAUUUUAUUUAAUUUAUUCAUUUAUGCAGUGAUGUUGCUAUUAUUCGAGAAGGCUGAUUUAUAA [JR_ExcFMNB_Sub006]	82.1
AAACUUGCAGUGAUGUUGCAAGUAGGUGAUACCAGCAUCGAAAGAUGCCCUUGGCAGCACCAUCUUGCAACAAAGGUGCUGCCAA [(H1)-(H2)-(T1)-(T2)-(H)'-(T)'_Design7]	87.5

Sequence	apparent KD of K4 kissing-loop reporter [nM]
GGAAGACACCUGAGUGAUGUUCGGGUGUGCCGAGGACCGGUACGGCCGCCACUCGGGUGGUACAGUUACUGAUUGGACCGCUAUC [Arbirace]	127
AUUAAUUUCAGAGGAUAUCGUUAUUUUUUAUAUUUUAUUCAUUUAUGCAGUGAUGUUGCUAUUAUUCGAGAAGGCUGAUUUAUAA [JR_ExcFMNB_Sub004]	86.4
AAGGCCACGAGAAGGAGCGUGUUGUGGAGUGAUGUUCCACUGUAGACCUAAGGUCUACAGGCACAGGUAGGUCGCUCGUGGUCAA [Omei KL Arginine B SS A v6]	131
UUUGUAUAGGGAAGGAGCGUGAAUGAUAAUGAAUAUAGUGAUGUUAUAUAUAAGAAAGAAUCACAGGUAGGUCGCCCGGAGGAGG [SSArgB.J]	612
AAAUUUAUUAUAUUUGAAUAAAUAUGUGAUACCAGACAUUUAUAAGUCCCUUGGCAGCACAAUGCAGUGAUGUUGCUUAUAAUAA [JR_SSTheophyA_Sub018]	89
GGAUAGGAUAGAGGAUAUGGAUUAGGCAAGAAUAACUUGUCUUGUAAAUCCAUGAGGAGUGAUGUUCCAGAAGGCUGUCCUAUCG [MatMod 6 - Jieux - Exclusion - FMN B]	233
UAGUAUAAUCUGUCGUUUACAAUAUUUAGUCAGGAUAUCGUAUAUUCGAGAAGGGACACUAUCUAGUGAUGUUAGAUAUUUCUUU [JR_ExcFMNA_Sub013]	46.8
AGCAGUGAUGUUGCAUUUAUAAUGACCGAUACCAGUAUCGAUAGAUACCCUUGGCAGCGGAUUUCCGCAACGACUAGGAAACUAG [Ex Theophylline A K4 14]	305
GUCAUCAGAUCGCAAGAUCUGAUAGCCGAUACCAGCGCGAAGGUGCGCCCUUGGCAGCGGCACCGAGUGAUGUUCGGUCAGACGG [#2 Same State - Theophylline A Attempt #4 (HarryS)]	658
UUUCGUUGAAGUGAUACCAGACUUGAAAGUGAUGUUUUCCAAUAAUUUAAAUUUUUAGCUGUCCCUUGGCAGCACAGUUUAUUUA [JR_Nu_ExcTheophyB_Sub025]	210
UCGGCGUACGGGCGGGUAGUGAUGUUGCUCCGAGGACCGGUACGGCCGCCACUCGAGGUACCAGUUCAUAGAACCUGGCACAUCA [theeternabot_exclusion_KL_Trp_A_23]	409
GGCUCCUACGGAGGAUAUAGUAGCCCAGAGUGAUGUUCUAGGGUGUUUUCCGAUUUAGUCAUUGUUCUAGAAGGCCGUAGGAGCC	266
UAAGAGGACCACUGCGAGAGUCCUCGAAUACGAGGACCGGUACGGCCGCCACUCGAUAAUUUGCAGUGAUGUUGCAAGUAAGAAU [BrourdMod 6 - Jieux - Same State Tryptophan A]	64.5
GAGGCCAGACGGAGUGAUGUUUCGUAUGAUACCAGCAGCGAAAGCUGCCCUUGGCAGCAUGCCACGGCCUCGGCGGGAAACCGCC	372
UGUGGAGAAUAUGAUACCAGCAGUGAGAGAGAGGAAGUAUAGUGAUGUUAUAUGAGAGAAUGCCCUUGGCAGCAUAUGUAGUAGG [SSTheophylB.G]	209
UAGGGCCCUGGAGGAUAUGAGUCUAGUGAUGUUAGGCGGUCCAUGCGCGUGGCGCGUUAUGCCCUUUUAGAAGGCCAGGGCCCUA [#2 Exclusion - FMN B Attempt #17 (HarryS)]	119
GGAUAGGAUAGAGGAUAUGGGCUAGGCAAGAAUAACUUGUCUAGCAAAUCCAUGAGGAGUGAUGUUCCAGAAGGCUGUCCUAUCG [FmnBX 1 U9]	901
UAGUCAUACAGAGGAUAUCGUAUGAGUGAUGUUCAUACGACAUAAUCGAGUUGUAUCGAUGUUCGACGAGAAGGCUGUAUGACUA [FMN B Ex t1b]	210
AAUAAGCGCCGAAGGAGCGGCCUCCGAGUGAUGUUCGGUGAGAUGCCAGUGAUGUUGGCCGGCCAGGUAGGUCGCGGCAAAGCUU [Same State Arginine B GF 29]	154
AGGCACGAGCAAGGAUAUCGAGUAGAGUGAUGUUCUGCCUGGGUUGGCGCGCAAGGGCCUUCCCAGCGAGAAGGUGCUCGUGCCU [#2 Same State - FMN A Attempt #11 (HarryS)]	221
AAGUCAUAGGCAGGAUAUGCAUUGUAAUAAGGCAAUAUAUACGUAUAGAGUGAUGUUUUGUACCAGGCAGAAGGGCUACAUCAGU [FMN B Excl V10 (+5A/U)]	674

Same assay, conditions: Eterna round: R107; input ligand: arginine 13.2 mM

Sequence	apparent KD of K4 kissing-loop reporter [nM]
UUAGUCUAGAGAAGGAGCGAGUGAUGUUCGCAUGCUAUGAUGAAUUCAUCAUAGUUUAAUCCUCAGGUAGGUCGCUCUAGACAUU [AK7 Exc Arginine B]	339
CGGAUGUAGUGAUGUUAUAUUAGAUGUAGACGAGGACCGGUACGGCCGCCACUCGUGAUGGCUGCUAGCGCGUUGCGAGGUUUGC [ExTryptoA.Co]	558
UUUUGGUUCUGAGGAUAUUCGAAGAAAUAUAGUGAUGUUAUAUAAGGAGGAGGAUGUAGGGAGGAAGGAGAAGGCAGAAGAGGAG [ExFMNB.J]	915
CGAUCUGAUAGCAGUGAUGUUGCUACAGAUACCAGUCCAGAUCGAGACCCUUGGCAGCUGACCCGGCAUGUGCUAUGGUAGAUCG [Theo A Ex t1]	127
AAAUAGGUGUGCGAUACCAGCCGGAGUGAUGUUCCGUGUUGUACUGGCUGCACCUACGCCGGCCCUUGGCAGCGUGCUCCAUUUA [Enonin]	140
AAAGCAUUGAGAAGGAGCGUGACGUGGAGUGAUGUUCCAUUGUAGUAAUAAUUACUACUAUCACAGGUAGGUCGCUCAUUGCUAA [JR_Nu_SSArginiB_Sub024]	159
GGAUAGGACAGAGGAUAUCUCUGAGGCAAGAAAACUUGUCUCUAAAGAGAUGACUCAGUGAUGUUGAGAGAAGGCUGUCCUAUCG [FmnBX 9 - #SwitchBubble #StaticStem]	143
AAACCAAUCAGAGGAUAUUCUUUAUUCGACAUAACCUUCUAUAAGGUGCAGUGAUGUUGCAAUAUAGGAGAAGGCUGAUUGACAA [Exclusion FMN B Gf 13]	338
UGAUAGGACAGAAGGAGCGGAGGUCGUCAAAGACGACCAAUACGUUAAAUAGGAGUGAUGUUCCAGGUAGGUCGCUGUCCUAUCU [ArgBX 30 #SwitchBubble #StaticStem]	119
GUCCCAGUGAUGUUGGUAGGCGGGCGGGAUACCAGCGGAGACUCACGCCCUUGGCAGCCCACAUAUCCCGCGUAGGGAUUAGCCC [Same State - Theophylline A (Freestyle 23)]	258
